In the supplement of paper PMC6757056:
± gives the standard deviation of the averaged measurements.

B1: library; a variant is named by its letters at N, in order (parent)
chain: GCUGUCACCGGUGUAUUACCCUAGUGGUCGACCGGUCUGAUGAGUCUNNNNNNAGACGAAACAGC

Assays:
hypoxanthine [1] = variants of: B1; assay: FACS-Seq fitted mean relative fluorescence mCherry/BFP without ligand (log10 relative fluorescence); ligand: hypoxanthine (xanthine aptamer); higher = higher reporter protein expression; conditions: HEK293T, ligand present: no
Method: (§1)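 Hammerhead (sTRSV) ribozyme switch libraries with a ligand aptamer grafted on stem I and a randomized N4-6 loop II, cloned into the 3' UTR of mCherry and transiently transfected into HEK293T cells; RNA-Seq 72 h post transfection with ligand added 1 h before transfection; RNA read count / plasmid DNA read count normalized to the non-cleaving sTRSVctl (x100), log10; sequences with >100 DNA reads. FACS-Seq: lentiviral library sorted into 6 bins after 48 h ligand, log-normal fit mean of mCherry/BFP scaled to controls. Printed sequences are partial switch sequences.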

hypoxanthine [2] = variants of: B1; assay: normalized RNA/DNA level with ligand (relative to sTRSVctl = 100) (log10 (% of sTRSVctl)); ligand: hypoxanthine (xanthine aptamer); higher = less ribozyme self-cleavage, higher mRNA level; conditions: ligand concentration (+) RNA-Seq: 5 mM, HEK293T, reporter: mCherry (pCS4076), ligand present: yes
Method: as §1

hypoxanthine [3] = variants of: B1; assay: normalized RNA/DNA level without ligand (relative to sTRSVctl = 100) (log10 (% of sTRSVctl)); ligand: hypoxanthine (xanthine aptamer); higher = less ribozyme self-cleavage, higher mRNA level; conditions: HEK293T, reporter: mCherry (pCS4076), ligand present: no
Method: as §1

hypoxanthine [4] = variants of: B1; assay: FACS-Seq fitted mean relative fluorescence mCherry/BFP with ligand (log10 relative fluorescence); ligand: hypoxanthine (xanthine aptamer); ligand concentration (+) FACS-Seq: 5 mM; higher = higher reporter protein expression; conditions: HEK293T, ligand present: yes
Method: as §1

| Variant | FACS-Seq fitted mean (log10) (hypoxanthine [1]) | normalized RNA/DNA level with ligand (log10) (hypoxanthine [2]) | normalized RNA/DNA level without ligand (log10) (hypoxanthine [3]) | FACS-Seq fitted mean (log10) (hypoxanthine [4]) |
| --- | --- | --- | --- | --- |
| GCUGUCACCGGUGUAUUACCCUAGUGGUCGACCGGUCUGAUGAGUCUGACAAAAGACGAAACAGC | 0.0314 ± 0.035 | 1.91 ± 0.058 | 1.774 ± 0.011 | 0.0426 ± 0.012 |
| GCUGUCACCGGUGUAUUACCCUAGUGGUCGACCGGUCUGAUGAGUCUUACAAGAGACGAAACAGC | 0.335 ± 0.0078 | 1.928 ± 0.011 | 1.58 ± 0.018 | 0.444 ± 0.047 |
| GCUGUCACCGGUGUAUUACCCUAGUGGUCGACCGGUCUGAUGAGUCUAACAAGAGACGAAACAGC | 0.124 ± 0.013 | 1.85 ± 0.051 | 1.41 ± 0.098 | 0.462 ± 0.033 |
| GCUGUCACCGGUGUAUUACCCUAGUGGUCGACCGGUCUGAUGAGUCUUACAAUAGACGAAACAGC | 0.702 ± 0.073 | 1.9 ± 0.039 | 1.819 ± 0.0071 | 0.7079 ± 0.0057 |
| GCUGUCACCGGUGUAUUACCCUAGUGGUCGACCGGUCUGAUGAGUCUAACAAUAGACGAAACAGC | 0.434 ± 0.044 | 1.89 ± 0.023 | 1.74 ± 0.042 | 0.249 ± 0.16 |
| GCUGUCACCGGUGUAUUACCCUAGUGGUCGACCGGUCUGAUGAGUCUAACACAAGACGAAACAGC | 0.00339 ± 0.015 | 1.9 ± 0.055 | 1.83 ± 0.023 | -0.0536 ± 0.037 |
| GCUGUCACCGGUGUAUUACCCUAGUGGUCGACCGGUCUGAUGAGUCUGACACCAGACGAAACAGC | 0.458 ± 0.072 | 1.92 ± 0.022 | 1.8641 ± 0.00014 | 0.365 ± 0.049 |
| GCUGUCACCGGUGUAUUACCCUAGUGGUCGACCGGUCUGAUGAGUCUAACACCAGACGAAACAGC | 0.754 ± 0.017 | 1.9322 ± 0.00016 | 1.9 ± 0.02 | 0.806 ± 0.073 |
| GCUGUCACCGGUGUAUUACCCUAGUGGUCGACCGGUCUGAUGAGUCUGACACGAGACGAAACAGC | 0.359 ± 0.011 | 1.9 ± 0.045 | 1.51 ± 0.018 | 0.695 ± 0.12 |
| GCUGUCACCGGUGUAUUACCCUAGUGGUCGACCGGUCUGAUGAGUCUAACACGAGACGAAACAGC | 0.0502 ± 0.00077 | 1.85 ± 0.046 | 1.4 ± 0.045 | 0.412 ± 0.037 |
